# From publication PMC3364950, “Structure and Functional Analysis of the RNA- and Viral Phosphoprotein-Binding Domain of Respiratory Syncytial Virus M2-1 Protein”
# B1: leader-pos (ssRNA)
# RNA: ACGCGAAAAAAU
# B2: GE_F-DNA (ssDNA)
# DNA: TTTTATATAACT
# B3: leader-neg (ssRNA)
# RNA: CGCAUUUUUUCGCGU
# B4: long U-rich (ssRNA)
# RNA: CCCAUUUUUUUGGUU
# B5: GE_F-neg (ssRNA)
# RNA: UUUUAUAUAACU
# B6: UGA2 (structured_RNA)
# RNA: GCGCUUUUUUAAGCGC
# B7: GS-neg (ssRNA)
# RNA: UAUUUGCCCC
# B8: GE_SH-neg (ssRNA)
# RNA: UUUUUAAUUAACU
# B9: short A-rich (short polyA) (ssRNA)
# RNA: CCAAAAAAAU
# How the values were obtained:
# [1] = target: T1, M2-1(58-177) core domain (human respiratory syncytial virus (hRSV, strain Long per Fig S7)) (UniProt P04545); experiment: NMR titration; details: NMR: 50-60 µM protein, 293 K, 14.1 T, 1:1 model, buffer/salt/pH not in material; EMSA: 100 µM GST fusion eluted with GSH, ~50 µM tRNA, 1 h room temperature …
# T1 sequence: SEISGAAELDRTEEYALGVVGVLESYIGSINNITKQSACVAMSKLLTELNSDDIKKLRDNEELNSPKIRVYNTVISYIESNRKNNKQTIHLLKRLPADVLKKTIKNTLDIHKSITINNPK
# [2] = target: RSV phosphoprotein P, full-length (P_(1–241)) (UniProt P12579); experiment: GST pull-down; details: parent: est. 100; read off a plot
# [3] = target: RSV phosphoprotein P, full-length (P_(1–241)) (human respiratory syncytial virus (strain Long)) (UniProt P12579); experiment: ITC; M2-1_(58–177) (335 µM, 20 injections of 2 µL) injected into P (33 µM) in the cell; 1× PBS; 20°C
# [4] = target: GST-M2-1 T160D (full-length) (human respiratory syncytial virus (strain Long)); experiment: pull-down; ~25 µM GST-M2-1 (or GST) on Glutathione-Sepharose 4B beads in PBS with a 3-fold molar excess of purified P, 1 h at 20°C; washed with PBS; SDS-PAGE, Coomassie blue, bands quantified with ImageJ
# [5] = target: GST-M2-1 N163D (full-length) (human respiratory syncytial virus (strain Long)); experiment: as above
# [6] = target: GST-M2-1 T130D (full-length) (human respiratory syncytial virus (strain Long)); experiment: as above
# [7] = target: GST-M2-1 L148A (full-length) (human respiratory syncytial virus (strain Long)); experiment: as above
# [8] = target: GST-M2-1 R126D (full-length) (human respiratory syncytial virus (strain Long)); experiment: as above
# M2-1(58-177) core domain = target: T2, M2-1(58-177) core domain (human respiratory syncytial virus …, UniProt P04545 58-177); experiment: NMR titration; NMR: 50-60 µM protein, 293 K, 14.1 T, 1:1 model, buffer/salt/pH not in material; EMSA: 100 µM GST fusion eluted with GSH, ~50 µM tRNA, 1 h room temperature, 1.5% agarose, 1x Tris-Glycine, 4°C; details: protein: recombinant, tags: N-terminal Gly-Ser left after thrombin cleavage of GST
# T2 sequence: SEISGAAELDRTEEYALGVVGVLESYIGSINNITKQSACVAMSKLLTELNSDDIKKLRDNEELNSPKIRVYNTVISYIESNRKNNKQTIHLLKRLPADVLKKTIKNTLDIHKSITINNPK
# [9] = predicted hairpin, poly-U loop, 2-3 bp stem
molecule,measurement,setting,value
AGUUAUAUAAAA / UUUUAUAUAACU [GE_F-ds],Kd,[1],4.5 µM
"GST-M2-1 (full-length M2-1 fused to GST), WT K92D",percent of parent,[2],54 % WT
"GST-M2-1 (full-length M2-1 fused to GST), WT K150D",percent of parent,[2],63 % WT
"GST-M2-1 (full-length M2-1 fused to GST), WT R151D",percent of parent,[2],44 % WT
RSV M2-1_(58–177) core domain (domain or fragment),Kd,[3],3 µM
same,stoichiometry N,[3],1
"RSV phosphoprotein P, full-length (P_(1–241)) (from UniProt P12579 1-241) (natural protein)",decrease in P binding against WT,[4],> 50%
same,decrease in P binding against WT,[5],> 50%
same,decrease in P binding against WT,[6],> 50%
same,decrease in P binding against WT,[7],> 50%
same,decrease in P binding against WT,[8],> 50%
B1,Kd,M2-1(58-177) core domain; partial self-association (two G-C and U-A pairs) seen by NMR,2.5 ± 1.5 µM
B2,Kd,M2-1(58-177) core domain,250 ± 70 µM
B3,Kd,M2-1(58-177) core domain; [9],75 ± 15 µM
B4,Kd,M2-1(58-177) core domain; [9],125 ± 35 µM
B5,Kd,M2-1(58-177) core domain,85 ± 25 µM
B6,Kd,"M2-1(58-177) core domain; hairpin, 5 bp, U-stretch",60 ± 10 µM
B7,Kd,M2-1(58-177) core domain,110 ± 15 µM
B8,Kd,M2-1(58-177) core domain,75 ± 15 µM
B9,Kd,M2-1(58-177) core domain,22 ± 6 µM
